Blank lines part the entries; values can stand above or below the binder they belong to. No end group written: not given here.
Key:
[1] = target: T1, human fibrinogen alpha chain (carrier protein in human plasma) (human, UniProt P02671-2 20-629); experiment: peptide incubated with normal human plasma, western blot (FIG. 10C)
T1 construct: mature; This is the carrier protein of normal plasma that runs at about 65-70 kDa in reducing SDS-PAGE; also called Uniprot P02671
T1 sequence (looked up): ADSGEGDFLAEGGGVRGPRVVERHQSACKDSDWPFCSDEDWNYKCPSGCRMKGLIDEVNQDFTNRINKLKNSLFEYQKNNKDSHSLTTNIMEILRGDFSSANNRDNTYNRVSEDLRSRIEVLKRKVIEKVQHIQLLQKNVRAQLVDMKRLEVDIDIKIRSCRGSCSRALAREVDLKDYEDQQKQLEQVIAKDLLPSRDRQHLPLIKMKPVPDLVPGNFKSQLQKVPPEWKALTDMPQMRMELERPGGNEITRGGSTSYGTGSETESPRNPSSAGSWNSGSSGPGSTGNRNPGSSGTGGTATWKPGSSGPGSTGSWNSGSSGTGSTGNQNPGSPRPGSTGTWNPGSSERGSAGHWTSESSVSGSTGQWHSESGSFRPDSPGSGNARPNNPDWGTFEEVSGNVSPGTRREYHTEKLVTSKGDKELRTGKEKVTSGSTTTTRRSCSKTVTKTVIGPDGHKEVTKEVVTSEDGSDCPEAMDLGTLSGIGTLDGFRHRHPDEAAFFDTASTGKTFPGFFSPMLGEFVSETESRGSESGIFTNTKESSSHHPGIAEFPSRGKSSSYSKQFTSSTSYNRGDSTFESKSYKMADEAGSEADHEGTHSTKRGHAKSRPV
Description: (§1) Band identity was verified by ponceau S stain followed by Western blot with anti-CIZ1b antibody 043 of a parallel gel (right). B) Gel slices were soaked in 2% SDS-PAGE loading buffer (with 200 mM βME) and separated through a denaturing gel to recover the 043-reactive species at 70 kDa. Note that sample loaded as a gel slice is slightly retardation compared to markers which are loaded in solution. […] C) Western blot of normal human plasma (non-cancer, N) showing reconstitution of CIZ1b epitope via complex formation between a carrier protein in plasma and synthetic CIZ1b peptides of the indicated lengths, but not equivalent CIZ1a peptide (Table 2). Note that free peptides migrate in reducing SDS-PAGE with a relative mobility 3 times expected (˜21 kDa instead of 7.6 kDa for b66, ˜5 kDa instead of 1.6 for b13). None are recognized by CIZ1b antibodies in western blot unless complexed with carrier protein. For CIZ1b66 peptide a new reactive species is created at ˜80 kDa, while CIZ1b13 peptide increases antigenicity at the same mobility as the endogenous epitope in lung cancer plasmas (C, lane 1). D) Western blot of non-reducing SDS-PAGE gel showing purified fibrinogen (6 nmols) in all lanes (upper), with and without prior incubation with 100 pmols of the indicated peptides (Table 2), probed with CIZ1b antibodies as indicated. […]

[2] = target: T1, human fibrinogen alpha chain (carrier …); experiment: 50 nmols peptide mixed with 0.5 ul non-cancer plasma, western blot
Description: FIG. 3—Ciz1 b-variant ˜65-70 kDa species is a Ciz1 b-variant peptide stably bound to a carrier protein, which may augment antigenicity of Ciz1 b-variant peptide. a) Western blot illustrating cancer-selective epitope recognised by anti-Ciz1 b-variant antibody 2B, as described previously (Higgins et al; as above). b) Reconstitution of a Ciz1 b-variant epitope from synthetic b-variant peptide (50 nmols of […] DFLV—SEQ ID NO: 12) mixed with 0.5 ul of non-cancer plasma. Free peptide migrates with mobility indicative of a MW 3-4× greater than predicted (˜30 kDa instead of 7.6 kDa), indicated by blue arrow. When incubated in plasma mobility decreases, antigenicity increases, and a new species is created at ˜80 kDa, indicated by red arrow. c) Similar results were generated with a separate anti-Ciz1 b-variant monoclonal antibody. d) For reference, a duplicate blot is probed with a monoclonal antibody that is selective for the exon 14a version of the peptide ([…]—SEQ ID NO: 13), showing detection of the peptide in lanes 1 and 3. Key: Lane 1, WT peptide only. Lane 2, B-var peptide only. Lane 3, WT peptide+normal plasma. Lane 4, B-var peptide+normal plasma. Lane 5, normal plasma only. […] F) Western blot showing titration of short peptide ([…]—SEQ ID NO: 2) into cancer patient plasma, detected with anti-Ciz1 b-variant monoclonal antibody (upper) or anti-Ciz1 b-variant polyclonal antibody 043 (lower).

[3] = target: T1, human fibrinogen alpha chain (carrier …); experiment: peptide combined with plasma, western blot
[4] = target: T1, human fibrinogen alpha chain (carrier …); experiment: peptide incubated with normal human plasma, reducing SDS-PAGE, western blot with 2B and 043
Description: as §1

B2: Long Ciz1 b-variant peptide (SEQ ID NO: 12) (peptide)
peptide: EIAGQDEDHFITVDAVGCFEGDEEEEEDDEDEEEIEVRSRDISREEWKGSETYSPNTAYGVDFLV
notes: also called synthetic b-variant peptide; B-var peptide
- binding result [2]: binds

B3: Short Ciz1 b-variant peptide DEEEIEVRSRDIS (peptide)
peptide: DEEEIEVRSRDIS
notes: also called short b-variant peptide; short peptide
- binding result [3]: binds

Results, then the binder that gave them:

- binding result [1]: binds
B1: Long CIZ1b peptide (b66) (peptide)
peptide: EIAGQDEDHFITVDAVGCFEGDEEEEEDDEDEEEIEVRSRDISREEWKGSETYSPNTAYGVDFLVP
notes: also called CIZ1b66

- binding result [4]: binds
Binder: CDEEEIEVRSRDIS-NH2 (also called CIZ1b13) [Short CIZ1b peptide (b13)]
